B1: Nb PGT121 (antibody)
heavy: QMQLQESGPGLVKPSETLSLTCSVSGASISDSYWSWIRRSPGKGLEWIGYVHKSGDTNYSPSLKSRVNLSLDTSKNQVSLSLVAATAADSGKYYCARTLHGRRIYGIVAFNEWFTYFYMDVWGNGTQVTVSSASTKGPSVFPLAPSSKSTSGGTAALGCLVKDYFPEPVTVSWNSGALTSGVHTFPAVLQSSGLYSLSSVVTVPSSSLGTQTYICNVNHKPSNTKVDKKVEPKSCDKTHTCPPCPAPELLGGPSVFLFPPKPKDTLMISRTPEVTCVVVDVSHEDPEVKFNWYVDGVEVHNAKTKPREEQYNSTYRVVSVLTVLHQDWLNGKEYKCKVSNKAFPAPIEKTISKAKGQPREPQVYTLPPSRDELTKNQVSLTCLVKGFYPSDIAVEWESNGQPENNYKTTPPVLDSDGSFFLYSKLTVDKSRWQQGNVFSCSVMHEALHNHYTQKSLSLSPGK
light: SDISVAPGETARISCGEKSLGSRAVQWYQHRAGQAPSLIIYNNQDRPSGIPERFSGSPDSPFGTTATLTITSVEAGDEADYYCHIWDSRVPTKWVFGGGTTLTVLRTVAAPSVFIFPPSDEQLKSGTASVVCLLNNFYPREAKVQWKVDNALQSGNSQESVTEQDSKDSTYSLSSTLTLSKADYEKHKVYACEVTHQGLSSPVTKSFNRGEC
modifications: Plant-type N-glycan at heavy-chain N312 (EU N297); letters unchanged.
B2: Nb PGT121-LS (antibody)
heavy: QMQLQESGPGLVKPSETLSLTCSVSGASISDSYWSWIRRSPGKGLEWIGYVHKSGDTNYSPSLKSRVNLSLDTSKNQVSLSLVAATAADSGKYYCARTLHGRRIYGIVAFNEWFTYFYMDVWGNGTQVTVSSASTKGPSVFPLAPSSKSTSGGTAALGCLVKDYFPEPVTVSWNSGALTSGVHTFPAVLQSSGLYSLSSVVTVPSSSLGTQTYICNVNHKPSNTKVDKKVEPKSCDKTHTCPPCPAPELLGGPSVFLFPPKPKDTLMISRTPEVTCVVVDVSHEDPEVKFNWYVDGVEVHNAKTKPREEQYNSTYRVVSVLTVLHQDWLNGKEYKCKVSNKAFPAPIEKTISKAKGQPREPQVYTLPPSRDELTKNQVSLTCLVKGFYPSDIAVEWESNGQPENNYKTTPPVLDSDGSFFLYSKLTVDKSRWQQGNVFSCSVLHEALHSHYTQKSLSLSPGK
light: SDISVAPGETARISCGEKSLGSRAVQWYQHRAGQAPSLIIYNNQDRPSGIPERFSGSPDSPFGTTATLTITSVEAGDEADYYCHIWDSRVPTKWVFGGGTTLTVLRTVAAPSVFIFPPSDEQLKSGTASVVCLLNNFYPREAKVQWKVDNALQSGNSQESVTEQDSKDSTYSLSSTLTLSKADYEKHKVYACEVTHQGLSSPVTKSFNRGEC
modifications: Plant-type N-glycan (partly unoccupied) at heavy-chain N312 (EU N297); letters unchanged.

Experiments:
Test in all cases: cell-based or functional assay
[1] = target: chimeric receptor containing a rhesus macaque FcγRIIA ectodomain and the CD3ζ intracellular signaling domain (rhesus macaque, UniProt A0A7G8YX83 34-216)
[2] = target: chimeric receptor containing a rhesus macaque FcγRIIB ectodomain and the CD3ζ intracellular signaling domain (rhesus macaque, UniProt A0A7G8YX88 43-217)
[3] = target: chimeric receptor containing a rhesus macaque FcγRIII ectodomain and the CD3ζ intracellular signaling domain (rhesus macaque, UniProt A3RFZ7 21-206)
chimeric receptor containing a rhesus macaque FcγRIII ectodomain and the CD3ζ intracellular signaling domain, sequence (A3RFZ7 whole entry, change not shown, the tested form may be a part): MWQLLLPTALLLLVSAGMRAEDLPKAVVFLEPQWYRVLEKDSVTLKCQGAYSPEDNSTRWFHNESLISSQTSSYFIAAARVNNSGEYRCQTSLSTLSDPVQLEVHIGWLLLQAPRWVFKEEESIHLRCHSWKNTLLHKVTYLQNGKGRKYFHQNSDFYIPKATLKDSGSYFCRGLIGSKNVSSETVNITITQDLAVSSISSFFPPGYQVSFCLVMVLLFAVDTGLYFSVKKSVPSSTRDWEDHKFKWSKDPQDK

[4] = target: chimeric receptor containing a rhesus macaque FcγRI ectodomain and the CD3ζ intracellular signaling domain (rhesus macaque, UniProt A0A7G8YX43 16-293)

Binder	EC50 (IL-2 ELISA) [1]	EC50 (IL-2 ELISA) [2]	EC50 (IL-2 ELISA) [3]	EC50 (IL-2 ELISA) [4]
B1	> 50 µg/mL	> 50 µg/mL	> 50 µg/mL	~0.71 µg/mL
B2	> 50 µg/mL	> 50 µg/mL	> 50 µg/mL	1.2 µg/mL

Source: patent publication US20250333512A1 (PLANTVAX, published 2025)
